In PMC11389776, “Positive allosteric modulation of a GPCR ternary complex” (Science Advances, 2024):
Each block holds one substance with its values, some of them ahead of it.

Columns and labels:
[1] = target: T1, M2 mAChR (Homo sapiens, UniProt P08172, DEL226-389); test: [3H]-NMS interaction binding with LY211 and/or G protein at M2 mAChR nanodiscs (full interaction and titration); details: Titration against KD concentration of [3H]-NMS, ATCM
T1 construct: made in house; host or cells: Sf9 insect cells (receptor, baculovirus); Trichoplusia ni Hi5 cells (G protein); E. coli BL21(DE3) (cMSP1D1 scaffold)
T1 sequence (P08172 with tags, fused parts or gaps DEL226-389): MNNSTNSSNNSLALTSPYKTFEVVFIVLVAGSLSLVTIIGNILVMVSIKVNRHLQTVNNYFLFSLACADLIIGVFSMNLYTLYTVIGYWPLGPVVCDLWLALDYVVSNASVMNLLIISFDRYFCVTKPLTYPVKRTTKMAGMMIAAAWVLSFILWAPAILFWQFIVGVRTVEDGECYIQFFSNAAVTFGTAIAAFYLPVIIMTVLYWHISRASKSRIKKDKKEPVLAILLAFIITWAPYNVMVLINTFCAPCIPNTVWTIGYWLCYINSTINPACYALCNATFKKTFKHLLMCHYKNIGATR
Protocol: (§1) The affinity of [^3H]-NMS for M2 mAChR in nanodiscs, as well as the concentration of receptor in nanodiscs, was determined through saturation binding with [^3H]-NMS. M2 nanodiscs were incubated with a range of concentrations of [^3H] […] Membrane equilibrium binding experiments were performed with 15 μg of membrane expressing the WT hM2 mAChR in a 300-μl reaction volume of binding buffer with or without 100 μM Gpp[NH]pp in deep 96-well plates for 6 hours at RT. […] For all radioligand binding experiments, nonspecific binding was defined by 10 μM Atr and the assay was terminated through rapid filtration through Whatman GF/B filter plates using a 96-well harvester (PerkinElmer). Filter plates were dried overnight, and radioactivity was determined by adding 40 μl of MicroScint-O scintillation fluid and counting in a MicroBeta^2 Plate Counter (PerkinElmer Life Sciences).
(§2) All data were analyzed using GraphPad Prism 9 (GraphPad Software, San Diego, CA). […] For competition binding experiments between [^3H]-NMS and a range of concentrations of unlabeled orthosteric agonist at M2 mAChR nanodiscs in the presence of G protein and for competition binding at M2 mAChR membranes, data were fit to a two-site competition binding model or a one-site competition binding model. […] Monoexponential decay and one-phase association equations were fit to the radioligand dissociation and association data at M2 mAChR nanodiscs.

[2] = target: T1, M2 mAChR; test: [3H]-NMS competition binding at M2 mAChR nanodiscs with or without Gi1 protein; details: 1:2000 molar ratio M2 mAChR:G protein, [3H]-NMS competition binding
Protocol: as §1, §2

[3] = target: M2ΔICL3 mAChR (Flag-M2ΔICL3-His) reconstituted into cMSP1D1 nanodiscs (human) (UniProt P08172); test: radioligand binding; Gi1 heterotrimer titrated (R:G ratios plotted as molar concentration) against a KD concentration of [3H]-NMS at M2 mAChR nanodiscs; affinity for the NMS-bound receptor from the allosteric ternary complex model (ATCM); 20 mM Hepes pH 7.5, 100 mM NaCl, 10 mM MgCl2, 0.5% BSA; 6 hours at RT; filtration; details: scale: negative logarithm of the equilibrium dissociation constant
[4] = target: M2ΔICL3 mAChR (Flag-M2ΔICL3-His) reconstituted into cMSP1D1 nanodiscs (human) (UniProt P08172)

- Log α[3H]-NMS [1]: −0.55 ± 0.16 (10)
- pKB [1]: 7.37 ± 0.22 (10)
- Log α[3H]-NMS ([1]; listed as Gi1): −0.55 ± 0.16
Substance: G protein heterotrimer: purified WT G protein heterotrimer (Gαi1β1γ2)

Substance: Gq: purified heterotrimeric G protein, Gq α subunit with Gβ1γ2
- effect of G protein heterotrimer on ACh affinity [2]: could not mediate any change in ACh affinity

- pKB [3]: 7.37
- FracHi: fraction of receptors in the high-affinity state for ACh, [3H]-NMS competition binding at M2 mAChR nanodiscs, receptor:G protein molar ratio 1:0 to 1:2000 (highest at 1:2000) [4]: 1
- FracHi: fraction of receptors in the high-affinity state for Ipx, [3H]-NMS competition binding at M2 mAChR nanodiscs, receptor:G protein molar ratio 1:0 and 1:500 to 1:2000 (highest at 1:2000) [4]: 0.91
- FracHi: fraction of receptors in the high-affinity state for Pilo, [3H]-NMS competition binding at M2 mAChR nanodiscs, receptor:G protein molar ratio 1:0 and 1:500 to 1:2000 (highest at 1:2000) [4]: 0.73
Substance: WT G protein heterotrimer Gαi1β1γ2 (from UniProt P63096 1-354; P62873 1-340; P59768 1-71) (complex)
